Values of other authors, collected in paper PMC8393563.

Target: PGRMC1 (Homo sapiens) (UniProt O00264)

Kd: < 3.5 µM
Substance: PGRMC1 (from UniProt O00264)
